Reference: US20160039867A1 (COMPLIX, published 2016)

B1: peptide Ac-MSIEEIQKQQAAIQKQIAAIQKQIYRMTP-NH2 (reference artificial peptide of Example 3) (peptide)
peptide: Ac-MSIEEIQKQQAAIQKQIAAIQKQIYRMTP-NH2
notes: Synthetic designed coiled coil-forming peptide; also called said synthesized peptide
B2: Q2aI peptide Ac-MSIEEIQKQIAAIQKQIAAIQKQIYRMTP-NH2 (peptide)
peptide: Ac-MSIEEIQKQIAAIQKQIAAIQKQIYRMTP-NH2
notes: Synthetic designed coiled coil-forming peptide; also called all-isoleucine core peptide

Legend:
[1] = molecular target: the molecule itself; assay: CD thermal unfolding curve (222 nm, 292 microM peptide) fitted to a monomer-trimer equilibrium; self-association of the peptide
Description: The said synthesized peptide was dissolved at a concentration of 292 microM in 20 mM phosphate buffer (PBS), 150 mM NaCl, pH 7.2. The CD spectra were measured between […], at 5° C. and 90° C. (FIG. 3). The spectrum at 5° C. was indicative of a high alpha-helical secondary structure content, in agreement with the expectation that all heptad regions, but not all of the flanking residues, would assemble as alpha-helical coiled coils.
In order to analyze whether the temperature-induced transition between helical and non-helical states was reversible, a forward (up) and backward (down) thermal scan was performed on the same sample, by recording the CD signal at […] as a function of temperature at a scanning rate of about 1 degree Celsius per minute (FIG. 4). It was observed that the up and down scans almost perfectly coincided, thereby confirming the quantitative unfolding and refolding of the peptides in the sample.
FIG. 5 represents fitting of a theoretic equation for trimeric association to experimental data. The experimental data are taken from FIG. 4, curve labeled ‘UP’. The theoretic equations used are listed supra. The fitted parameters (fitting results) are listed at the right in FIG. 5. ‘Transit. T’ corresponds to Tₜ, but is expressed in degrees Celsius. The parameter ‘delta Cₚ’ was kept constant at 3.0 kJ mol⁻¹ K⁻¹. […]

[2] = molecular target: the molecule itself; assay: analytical sedimentation equilibrium ultracentrifugation, 25000 rpm, about 1 mg/ml; self-association of the peptide

Row | Protein | binding result [1] | binding result [2]
1 | B1 | binds | 
2 | B2 |  | binds
